{
  "source": "patent US20220288204A1",
  "about": "“DOSAGE AND ADMINISTRATION OF ANTI-ERBB3 (HER3) MONOCLONAL ANTIBODIES TO TREAT TUMORS ASSOCIATED WITH NEUREGULIN 1 (NRG1) GENE FUSIONS” (ELEVATION ONCOLOGY, INC., priority 2021, published 2022)",
  "molecules": {"B1": {"name": "seribantumab (antibody, human IgG2, lambda, V domains shown)", "VH": "EVQLLESGGGLVQPGGSLRLSCAASGFTFSHYVMAWVRQAPGKGLEWVSSISSSGGWTLYADSVKGRFTISRDNSKNTLYLQMNSLRAEDTAVYYCTRGLKMATIFDYWGQGTLVTVSS", "VL": "QSALTQPASVSGSPGQSITISCTGTSSDVGSYNVVSWYQQHPGKAPKLIIYEVSQRPSGVSNRFSGSKSGNTASLTISGLQTEDEADYYCCSYAGSSIFVIFGGGTKVTVLG"}},
  "key": {"OV-10-0050 PDX tumors": {"test_system": "OV-10-0050 PDX tumors", "assay": "HGSOC ovarian PDX model efficacy (CLU-NRG1)", "format": "in vivo, mice", "design": "average tumor volume at the time of the last treatment: unit not given beside the values", "details": "afatinib 5 mg/kg once daily, day 27", "source_text": "IHC characterization of the OV-10-0050 PDX model (FIG. 6A). H&E staining, WT1, and TP53 IHC (left to right). […] (FIG. 6B). Treatment was terminated on day 27 and animals were monitored for tumor regrowth until tumors reached maximum allowable size or until 90 days after treatment initiation. Results represent the mean tumor volume ±SEM. A zoom-in view on tumor volumes during the last 40 days of monitoring of seribantumab-treated groups (right). […] Change in the volume of individual tumors (day 27 vs. volume at start of treatment) (FIG. 6C).\nCrushed PDX tumor samples were mixed with Matrigel (50%) and injected into the subcutaneous flank of 6-week-old female NSG (LUAD-0061AS3) or Balb/c nude (OV-10-0050) mice. When tumors reached approximately 100-150 mm3, mice were randomly assigned to groups of 5-8 and treatment was commenced. There were 2 mice per group with bilateral flank tumors for the protein phosphorylation/expression study in the LUAD-0061AS3 PDX model. Drugs were administered once, and then tumors were collected at 2, 24, and 168 hours posttreatment. Afatinib was administered by oral gavage once daily as a suspension (in 0.5% methylcellulose-0.4% Tween-80) on a 5-days-on and 2-days-off schedule. […] Mice were observed daily throughout the treatment period for signs of morbidity and mortality. Tumor length and width and animal weights were measured twice weekly. Tumor volume was calculated using the empirical formula V=length×width 2×0.52. The percentage change in tumor volume of each tumor was calculated using the formula [(V2−V1)/V1)]×100, where V1 is the starting tumor volume and V2 is the final tumor volume.\nRT-PCR confirmed the presence of the CLU-NRG1 fusion. Xenograft tissue morphology and IHC markers (positive for WT1 and strong nuclear staining for TP53) were consistent with HGSOC histology (FIG. 6A; Kobel M, et al., Int. J. Gynecol. Pathol. 2016; 35:430-41). […] As with the above experiments in the NSCLC PDX model, the doses of seribantumab used here were lower than the dose that is used in patients. Treatment was terminated at day 27 and tumor growth was monitored for an additional 63 days (90 days after initiation of treatment or once tumors reached the maximum allowable size). The tumor volume as a function of time is illustrated in FIG. 6B, and the AUC was computed for each group to compare tumor volumes between groups at the last date of treatment. […] Forty-one days after treatment began, mice bearing vehicle- and afatinib-treated tumors were sacrificed because of the high tumor burden."}, "MDA-MB-175-VII cells": {"test_system": "MDA-MB-175-VII cells", "assay": "Caspase 3/7 enzymatic activity in cell homogenates (apoptosis)", "format": "cell-based, human", "description": "(§1) MCF-7 cells were treated with the indicated concentrations of NRG1-b1 for 10 minutes, and then cell extracts were prepared and subjected to Western blotting for the indicated phosphorylated (p) or total (t) proteins (FIG. 2A). […] Data were analyzed by nonlinear regression using GraphPad Prism 8. There were four replicates of each condition and data represent the mean±SD. […] Cells were counted on the days indicated on the graph. Results represent the mean±SD of duplicates of each condition in one representative experiment. MDA-MB-175-VII (FIG. 2D) and LUAD-0061AS3 (FIG. 2E) cells were treated with the indicated concentrations of inhibitors for 48 hours, and then caspase 3/7 enzymatic activity was measured in cell homogenates. Carfilzomib (20S proteasome inhibitor) was used as a positive control for apoptosis. Results are the mean±SEM of three independent experiments in which each condition was assayed in three replicate determinations. The absence of an error bar for any data point indicates an error value too small to be represented on the scale used.\n(§2) As a positive control for activation of caspase 3/7, 1 μmol/L carfilzomib was used."}, "LUAD-0061AS3 cells": {"test_system": "LUAD-0061AS3 cells", "assay": "Caspase 3/7 enzymatic activity in cell homogenates (apoptosis)", "format": "cell-based, human", "description": "as §1, §2"}, "human ERBB3 (HER3)": {"biological_target": "human ERBB3 (HER3) (human, UniProt P21860 20-1342)", "sequence (P21860 other isoform, or with tags, fused parts or gaps)": "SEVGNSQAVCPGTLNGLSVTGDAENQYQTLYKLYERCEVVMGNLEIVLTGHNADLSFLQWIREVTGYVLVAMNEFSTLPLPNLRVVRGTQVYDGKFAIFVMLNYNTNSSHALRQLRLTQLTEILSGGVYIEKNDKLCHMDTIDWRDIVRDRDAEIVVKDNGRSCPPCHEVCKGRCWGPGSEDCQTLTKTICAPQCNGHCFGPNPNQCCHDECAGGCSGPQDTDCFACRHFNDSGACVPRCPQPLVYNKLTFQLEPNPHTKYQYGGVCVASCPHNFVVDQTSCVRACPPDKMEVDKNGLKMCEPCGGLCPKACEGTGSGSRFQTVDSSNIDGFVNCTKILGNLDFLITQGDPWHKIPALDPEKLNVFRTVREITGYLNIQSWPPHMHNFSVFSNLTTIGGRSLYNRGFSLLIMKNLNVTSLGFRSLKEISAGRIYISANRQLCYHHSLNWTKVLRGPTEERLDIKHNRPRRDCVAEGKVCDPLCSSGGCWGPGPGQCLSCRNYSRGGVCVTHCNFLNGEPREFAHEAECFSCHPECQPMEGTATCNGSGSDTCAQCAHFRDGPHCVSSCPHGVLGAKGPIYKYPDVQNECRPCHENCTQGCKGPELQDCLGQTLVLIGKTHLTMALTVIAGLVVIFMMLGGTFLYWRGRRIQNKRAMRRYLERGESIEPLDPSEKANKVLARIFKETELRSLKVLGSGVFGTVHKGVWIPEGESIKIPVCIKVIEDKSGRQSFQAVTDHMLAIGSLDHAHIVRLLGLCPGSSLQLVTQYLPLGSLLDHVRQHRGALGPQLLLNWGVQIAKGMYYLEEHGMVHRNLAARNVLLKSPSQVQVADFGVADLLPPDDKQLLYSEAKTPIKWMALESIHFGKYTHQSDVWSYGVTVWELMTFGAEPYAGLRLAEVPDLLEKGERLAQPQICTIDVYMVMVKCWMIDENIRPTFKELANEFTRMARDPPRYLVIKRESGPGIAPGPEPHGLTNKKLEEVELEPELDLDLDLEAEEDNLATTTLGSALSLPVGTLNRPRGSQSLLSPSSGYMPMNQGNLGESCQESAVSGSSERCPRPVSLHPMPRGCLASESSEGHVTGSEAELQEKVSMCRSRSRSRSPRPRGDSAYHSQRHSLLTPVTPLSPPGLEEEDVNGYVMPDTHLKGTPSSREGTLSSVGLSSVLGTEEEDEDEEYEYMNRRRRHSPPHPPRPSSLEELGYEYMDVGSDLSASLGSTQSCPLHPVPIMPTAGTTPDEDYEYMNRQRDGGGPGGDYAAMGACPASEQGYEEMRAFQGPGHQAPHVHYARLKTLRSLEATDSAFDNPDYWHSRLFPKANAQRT", "assay": "cell-based or functional assay"}, "[1]": {"details": "1 μmol/L carfilzomib, positive control"}},
  "data": [
    {"molecule": "CN(C)C/C=C/C(=O)Nc1cc2c(Nc3ccc(F)c(Cl)c3)ncnc2cc1O[C@H]1CCOC1", "note": "[afatinib]", "values": [
      {"measurement": "average tumor volume at the time of the last treatment", "setting": "OV-10-0050 PDX tumors", "result": "786.4±190.5"},
      {"measurement": "caspase 3/7 activity", "setting": "MDA-MB-175-VII cells; 10 μmol/L, 48 hours", "result": "14.1±3.6", "unit": "fold above control"},
      {"measurement": "caspase 3/7 activity", "setting": "LUAD-0061AS3 cells; highest concentration used, 48 hours", "result": "3.3±0.1", "unit": "fold above control"}
    ]},
    {"molecule": "CC(C)C[C@H](NC(=O)[C@H](CCc1ccccc1)NC(=O)CN1CCOCC1)C(=O)N[C@@H](Cc1ccccc1)C(=O)N[C@@H](CC(C)C)C(=O)[C@@]1(C)CO1", "note": "[carfilzomib]", "values": [
      {"measurement": "caspase 3/7 activity", "setting": "MDA-MB-175-VII cells; [1]", "result": "16.6±1.9", "unit": "fold above control"},
      {"measurement": "caspase 3/7 activity", "setting": "LUAD-0061AS3 cells; [1]", "result": "5.8±1.3", "unit": "fold above control"}
    ]},
    {"molecule": "B1", "values": [
      {"measurement": "IC50 for growth inhibition, HBECp53 cells (nontumor, no NRG1 fusion, control), 96 h, AlamarBlue viability", "setting": "human ERBB3 (HER3)", "result": 203, "unit": "µM"},
      {"measurement": "IC50 for growth inhibition, LUAD-0061AS3 cells (SLC3A2-NRG1 fusion), 96 h, AlamarBlue viability", "setting": "human ERBB3 (HER3)", "result": 1.4, "unit": "µM"},
      {"measurement": "IC50 for growth inhibition, MCF-7 cells (no NRG1 fusion, control), 96 h, AlamarBlue viability", "setting": "human ERBB3 (HER3)", "result": 45.2, "unit": "µM"},
      {"measurement": "IC50 for growth inhibition, MDA-MB-175-VII cells (DOC4-NRG1 fusion), 96 h, AlamarBlue viability", "setting": "human ERBB3 (HER3)", "result": 0.02, "unit": "µM"},
      {"measurement": "caspase 3/7 activity, LUAD-0061AS3 cells, highest concentration used, 48 h", "setting": "human ERBB3 (HER3)", "result": 4, "unit": "fold above control"},
      {"measurement": "caspase 3/7 activity, MDA-MB-175-VII cells, 10 µmol/L, 48 h", "setting": "human ERBB3 (HER3)", "result": 12.7, "unit": "fold above control"}
    ]}
  ]
}
